Source: article PMC10393194

Target: THO complex (endogenous, purified via Sub2 and Hpr1-TS) (S. cerevisiae | S. cerevisiae (endogenous in yeast)) (UniProt P17629)
Test: cryo-EM structure; single-particle cryo-EM of the benzonase-treated native eluate on 2-nm carbon-supported grids; Glacios 200 kV; heterogeneous and nonuniform refinement without imposed symmetry

“THO complex (endogenous, purified via Sub2 and Hpr1-TS) (from UniProt P17629 1-752; P53552 1-1597)” gave a stoichiometry N of 2.
